Experimental data reported in patent US20230312756A1 (MacroGenics, published 2023).

Molecular target: T1, PD-1 on circulating T cells of patients (human, UniProt Q15116 25-288)
T1 construct: whole, on cells; Probably the same protein as m2
Experiment: receptor occupancy by flow cytometry on blood of patients treated with DART-D
Procedure: Receptor Occupancy (RO): One hundred microliter […] volumes of whole blood samples (per time point/per patient) were incubated with saturating concentration of DART-D, followed by lysis and detection of DART-D by biotinylated anti-drug mAb/Strep-PE in “DART-D-spiked” and control samples. After subtraction of background fluorescence (Step-PE only), RO values were calculated as a fraction of maximal binding capacity: RO=(untreated MFI(PE)−background MFI(PE))/(treated MFI(PE)−background MFI(PE)).

T1 sequence (Q15116 25-288): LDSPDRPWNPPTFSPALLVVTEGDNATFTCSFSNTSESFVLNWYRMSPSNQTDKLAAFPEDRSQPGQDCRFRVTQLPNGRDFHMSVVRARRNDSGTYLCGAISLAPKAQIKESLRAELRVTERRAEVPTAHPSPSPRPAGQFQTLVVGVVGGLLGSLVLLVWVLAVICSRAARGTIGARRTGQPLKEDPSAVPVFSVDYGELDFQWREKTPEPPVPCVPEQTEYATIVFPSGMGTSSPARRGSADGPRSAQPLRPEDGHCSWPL

B1: DART-D (bispecific antibody, human IgG4 S228P)
chain 1: EIVLTQSPATLSLSPGERATLSCRASESVDNYGMSFMNWFQQKPGQPPKLLIHAASNQGSGVPSRFSGSGSGTDFTLTISSLEPEDFAVYFCQQSKEVPYTFGGGTKVEIKGGGSGGGGQVQLVESGGGVVQPGRSLRLSCAASGFTFSSYTMHWVRQAPGKGLEWVTFISYDGSNKHYADSVKGRFTVSRDNSKNTLYLQMNSLRAEDTAIYYCARTGWLGPFDYWGQGTLVTVSSGGCGGGEVAACEKEVAALEKEVAALEKEVAALEKESKYGPPCPPCPAPEFLGGPSVFLFPPKPKDTLYITREPEVTCVVVDVSQEDPEVQFNWYVDGVEVHNAKTKPREEQFNSTYRVVSVLTVLHQDWLNGKEYKCKVSNKGLPSSIEKTISKAKGQPREPQVYTLPPSQEEMTKNQVSLTCLVKGFYPSDIAVEWESNGQPENNYKTTPPVLDSDGSFFLYSRLTVDKSRWQEGNVFSCSVMHEALHNHYTQKSLSLSLG
chain 2: not shown
notes: Tetravalent (2x2) four-chain Fc-bearing diabody, two sites for PD-1 and two for CTLA-4; also called MGD019; PD-1×CTLA-4 bispecific molecule
  binding result: binds
